Source: the supplement of paper PMC10567573

B1: SPOPL (parent)
chain: AKREETKAMESQRAYRFVQGKDWG

Variants of: B1
Assay: protein stability index of a GFP-peptide fusion (GPS, HEK-293T) (PSI 1-6); higher = more stable
Details: c terminus: a fixed tail appended
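Note: lentivirally expressed fusions sorted by FACS into six bins by GFP to DsRed ratio, PSI derived from sequencing read proportions per bin multiplied by bin number.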

Protein stability index of substitutions, site by site:
K7: W 2.04; Y 3.5; G 3.23; A 3.52; M 2.62; I 2.72; N 3.25; F 2.9; P 3.37; D 3.29; R 2.57; V 2.83; E 3.72; S 3.23; C 1.78; L 2.44; Q 3.04; H 2.8; T 3.53
G20: T 3.41; K 3.64; L 2.88; E 4.31; N 3.76; Q 4.14; S 3.35; I 2.73; F 3.49; P 2.83; Y 3.13; A 3.33; M 2.58; D 4.06; W 2.72; H 3.33; R 3.59; C 2.97; V 3.19
W23: C 4.9; D 4.4; A 4.8
D22: H 3.1; L 2.94; F 2.94; N 2.74; Q 3.18; A 3.14; G 3.96; K 3.77; Y 2.76; C 3.13; T 3.86; P 3.18; S 3.42; R 4.09; V 3.82; I 3.4; M 2.95; E 3.17; W 2.55
R16: I 3.42; E 4.2; H 4.49; F 2.63; Y 3.24; G 3.63; V 3.51; K 3.99; P 3.68; L 3.6; Q 4.17; T 4.04; W 2.94; M 3.65; C 3.77; S 4.04; N 4.2; D 4.07; A 3.69
R13: Q 3.67; C 2.72; K 3.67; W 2.26; T 3.42; L 2.36; V 2.28; Y 3.32; I 3.11; P 2.61; G 3.61; H 3.62; S 3.38; F 2.8; E 4.24; D 4.47; M 2.54; A 3.65; N 3.92
A8: P 2.9; F 2.35; W 1.37; D 4.01; N 3.03; V 2.42; M 2.87; K 3.44; T 3.37; H 3.28; S 3.37; C 2.75; Y 2.77; Q 3.75; E 4.1; G 2.48; R 3.43; I 2.53; L 2.38
E10: K 2.96; F 2.37; L 2.3; Y 1.73; M 2.29; T 3.06; V 2.75; W 2.4; A 2.61; C 2.63; H 2.33; R 2.39; Q 2.95; N 3.34; D 3.02; I 2.15; P 3.18; S 3; G 2.69
K21: F 3.62; R 2.51; Y 3.08; L 2.67; V 3.1; H 2.32; W 3.44; D 3.99; T 3.04; C 3.28; G 2.83; A 2.96; S 2.67; E 3.46; I 2.94; P 2.4; N 3.11; M 3.43; Q 3.02
S11: W 1.88; C 2.23; A 2.07; I 2.44; R 2.96; K 3.15; V 2.53; M 2.33; N 3.47; H 2.83; Y 2.59; F 2.14
